Where a chain is given by its changes, count along the chain named. Names and notes keep the numbering of the source. Each block holds one molecule with its values, some of them ahead of it. Where no end group is shown, it is not given here. [ ]: non-standard residue; d: D form. pT = C[C@@H](OP(=O)(O)O)[C@H](N)C(=O)O
How the values were obtained:
human PLK1-PBD (371-594) = target: T1, human PLK1-PBD (371-594) (Homo sapiens, UniProt P53350); test: Fluorescence polarisation binding assay for the PBD of PLK1; details: FITC-labelled peptide 10 nM, protein 0 to 4 μM
T1 construct: The human PLK1-PBD (371-594) was amplified by PCR; GST (N, cleaved yes); made in house; host or cells: E. coli Rosetta2(DE3)pLysS
Experimental: The human PLK1-PBD (371-594) was amplified by PCR and cloned into the pGEX6p-1 vector using the EcoRI and XhoI restriction enzyme sites. The protein was overexpressed in E. coli Rosetta2(DE3)pLysS cells (Novagen). The cells were grown at 37° C. in 3 L of Terrific Broth medium to an OD600 of 0.6, and recombinant protein expression was induced with 0.1 mM isopropyl β-D-thiogalactopyranoside (IPTG) at 20° C. The cells were further grown at 20° C. for 20 hr after IPTG induction. The purification methods were similar to methods that have been previously reported (Cheng, K. Y., et al. The crystal structure of the human polo-like kinase-1 polo box domain and its phospho-peptide complex. EMBO J 22, 5757-68 (2003)). Briefly, the cell pellet was resuspended in ice-cold HBS buffer (10 mM HEPES pH 7.5, 200 mM NaCl, 3.4 mM EDTA, 0.01% (v/v) 1-thioglycerol) and homogenized by sonication. After sonication, the cell debris was centrifuged and supernatant was applied to GST Sepharose resin (GE Healthcare). After extensive washing with HBS buffer, protein was eluted with HBS buffer supplemented with 20 mM reduced glutathione. PreScission protease (GE Healthcare) was added to eluted protein in order to remove the fused GST and the cleavage product was diluted and re-passed through GST Sepharose column. The flow through was collected and applied to Superdex 75 prep grade column (GE Healthcare) equilibrated with HBS buffer. The purified protein was concentrated to 6 mg/ml and used for fluorescence polarization binding assay or crystal screening.
For the fluorescence polarisation binding assay, FITC-labelled 1010pT (GVLSpTLI) or 1010T (GVLSTLI) (SEQ ID NO: 8) peptide was mixed with purified PBD and incubated in a buffer containing 10 mM HEPES (pH7.5), 50 mM NaCl, 1 mM EDTA, 1 mM DTT, and 0.0025% (v/v) Tween 20. The final protein concentrations ranged from 0 to 4 μM, and the final peptide concentration was 10 nM. Fluorescence polarisation was analysed 30 min after mixing the peptide and proteins in a 96-well plate using a VERSAmax microplate reader (Molecular Devices). Binding curves were fitted using GraphPad Prism software (GraphPad Software).
The human PLK1-PBD (371-594), PLK2-PBD (451-685) and PLK3-PBD (412-646) genes were cloned into pGEX6p-1 vector using EcoRI/XhoI restriction sites. […] The purified PLK-PBD proteins were concentrated and used for the fluorescence polarization binding assay.
For the fluorescence polarization binding assay, each fluorescein isothiocyanate (FITC)-labeled 1010pT (GVLSpTLI), 1010T (GVLSTLI), 1010E (GVLSELI), or 1010D (GVLSDLI) peptide was mixed with purified PLK1, PLK2 or PLK3 and incubated in a buffer containing 10 mM HEPES (pH 7.5), 50 mM NaCl, 1 mM EDTA, 1 mM DTT and 0.0025% (v/v) Tween 20. […]

[1] = test system: HuR-7 human hepatoma cell; test: Cell survival and nucleus morphology of hepatoma cells treated with FITC-tagged NCAPG2 peptides (Opera Phenix); assay type: cell-based; details: HuR-7, FITC-tagged peptide
Excerpt: FIG. 12 illustrates NCAPG2 p The1010 (VLSpTL) and NCAPG2 The1010 (VLSTL) peptide decreased cell survival and induced mitotic defect in HuR-7 human hepatoma cell. Cell survival and nucleus morphology were detected from Opera Phenix system (PerkinElmer).

PLK1 = target: T2, PLK1 (Homo sapiens, UniProt P53350); test: Pull down assay / immunoprecipitation of Flag-tagged NCAPG2 mutants with GST-tagged PLK1; assay type: binding
T2 construct: expressed in transfected cells
Excerpt: The NCAPG2 expression vectors were constructed using pcDNA3.1, pCMV-3FLAG-1, and pLL3.7 vectors with KpnI/XhoI, EcoRV/XhoI, and SmaI/XhoI restriction enzyme sites, respectively. To produce siRNA-resistant NCAPG2 mutants (Lenti-NCAPG2^R), the mutants (forward primer: 5′ GAAGACTACCTGAAGCTTCACAGA GTGATT TATCAGCAAATTATCCAGACCTACCTG-3′ (SEQ ID NO: 3), reverse primer: 5′-CAGGTAGGTCTGGATAATTTGCTGATAAATCACTCTGTGAAGCTTCAGGTAGTCTTCTTC-3′ (SEQ ID NO: 4)) were generated using a QuikChange Site-Directed Mutagenesis Kit (Stratagene). […]
For the detection of proteins using the immunoblottings, subjects were protein complexes from immunoprecipitation or whole cell lysates harvested from indicated conditions. […] Protein concentration was determined using BCA™ protein assay kit (Pierce, Rockford, USA). […] Protein expressions detected chemiluminescent signals activated by SuperSignal West Pico Chemiluminescent Substrate (Pierce Rockford, Ill., USA) reacted with horse radish peroxidase tagged secondary antibodies (Jackson ImmunoResearch Laboratories, Inc., West Grove, USA).

T2 sequence (P53350 whole entry): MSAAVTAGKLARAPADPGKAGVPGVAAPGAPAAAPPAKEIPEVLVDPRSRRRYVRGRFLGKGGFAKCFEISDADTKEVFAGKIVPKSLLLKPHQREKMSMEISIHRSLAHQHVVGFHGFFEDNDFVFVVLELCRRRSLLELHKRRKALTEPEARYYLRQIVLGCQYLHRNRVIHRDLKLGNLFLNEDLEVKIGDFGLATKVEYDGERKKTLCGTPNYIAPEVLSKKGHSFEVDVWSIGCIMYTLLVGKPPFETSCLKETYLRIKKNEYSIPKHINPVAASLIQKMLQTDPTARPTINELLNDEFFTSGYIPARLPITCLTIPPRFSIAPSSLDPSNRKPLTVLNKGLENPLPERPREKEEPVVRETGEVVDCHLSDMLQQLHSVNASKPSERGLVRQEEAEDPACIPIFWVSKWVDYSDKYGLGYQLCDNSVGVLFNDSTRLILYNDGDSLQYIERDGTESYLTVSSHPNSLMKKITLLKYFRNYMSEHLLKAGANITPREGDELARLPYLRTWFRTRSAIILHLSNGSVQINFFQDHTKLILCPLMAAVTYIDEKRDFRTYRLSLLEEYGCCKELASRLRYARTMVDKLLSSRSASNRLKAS
T1 sequence (P53350 371-594): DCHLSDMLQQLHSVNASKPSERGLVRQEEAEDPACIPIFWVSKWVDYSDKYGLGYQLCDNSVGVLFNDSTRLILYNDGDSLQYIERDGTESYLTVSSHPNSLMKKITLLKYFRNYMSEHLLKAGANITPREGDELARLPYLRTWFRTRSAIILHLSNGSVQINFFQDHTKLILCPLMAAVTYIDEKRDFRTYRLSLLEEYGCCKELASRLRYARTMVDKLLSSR

Molecule: GVLSELI [1010E, 7-mer peptide with glutamate as phosphor-Thr mimetic]
- binding to PLK1-PBD (in words) (human PLK1-PBD (371-594)): did not bind

Molecule: VLSTL (listed as Homo sapiens) [NG2 The1010]
- effect on mitosis [1]: induced abnormal mitosis
- survival rate of human liver cancer cell [1]: lowered survival rate

Molecule: VLSpTL (VLS[pT]L; listed as Homo sapiens) [NG2 p The1010, phosphorylated 5-mer NCAPG2 peptide comprising residue 1010]
- effect on mitosis [1]: induced abnormal mitosis
- survival rate of human liver cancer cell [1]: lowered survival rate

B2: T805A: NCAPG2 mutant which substituted threonine with alanine at the residue number 805 of SEQ ID NO: 7 (protein, listed as Homo sapiens)
chain: MEKRETFVQAVSKELVGEFLQFVQLDKEASDPFSLNELLDELSRKQKEELWQRLKNLLTDVLLESPVDGWQVVEAQGEDNMETEHGSKMRKSIEIIYAITSVILASVSVINESENYEALLECVIILNGILYALPESERKLQSSIQDLCVTWWEKGLPAKEDTGKTAFVMLLRRSLETKTGADVCRLWRIHQALYCFDYDLEESGEIKDMLLECFININYIKKEEGRRFLSCLFNWNINFIKMIHGTIKNQLQGLQKSLMVYIAEIYFRAWKKASGKILEAIENDCIQDFMFHGIHLPRRSPVHSKVREVLSYFHHQKKVRQGVEEMLYRLYKPILWRGLKARNSEVRSNAALLFVEAFPIRDPNLHAIEMDSEIQKQFEELYSLLEDPYPMVRSTGILGVCKITSKYWEMMPPTILIDLLKKVTGELAFDTSSADVRCSVFKCLPMILDNKLSHPLLEQLLPALRYSLHDNSEKVRVAFVDMLLKIKAVRAAKFWKICPMEHILVRLETDSRPVSRRLVSLIFNSFLPVNQPEEVWCERCVTLVQMNHAAARRFYQYAHEHTACTNIAKLIHVIRHCLNACIQRAVREPPEDEEEEDGREKENVTVLDKTLSVNDVACMAGLLEIIVILWKSIDRSMENNKEAKLYTINKFASVLPEYLKVFKDDRCKIPLFMLMSFMPASAVPPFSCGVISTLRSREEGAVDKSYCTLLDCLCSWGQVGHILELVDNWLPTEHAQAKSNTASKGRVQIHDTRPVKPELALVYIEYLLTHPKNRECLLSAPRKKLNHLLKALETSKADLESLLQAPGGKPRGFSEAAAPRAFGLHCRLSIHLQHKFCSEGKVYLSMLEDTGFWLESKILSFIQDQEEDYLKLHRVIYQQIIQTYLTVCKDVVMVGLGDHQFQMQLLQRSLGIMQTVKGFFYVSLLLDILKEITGSSLIQKTDSDEEVAMLLDTVQKVFQKMLECIARSFRKQPEEGLRLLYSVQRPLHEFITAVQSRHTDTPVHRGVLSTLIAGPVVEISHQLRKVSDVEELTPPEHLSDLPPFSRCLIGIIIKSSNVVRSFLDELKACVASNDIEGIVCLTAAVHIILVINAGKHKSSKVREVAATVHRKLKTFMEITLEEDSIERFLYESSSRTLGELLNS
- binding of NCAPG2 mutant to PLK1 (PLK1): inhibited

Further lines, results first:

- binding to PLK1-PBD (in words) (human PLK1-PBD (371-594)): did not bind
Molecule: GVLSDLI [1010D, 7-mer peptide with aspartate as phosphor-Thr mimetic]

- binding of NCAPG2 mutant to PLK1 (PLK1): inhibited
B1: T1010A: NCAPG2 mutant which substituted threonine with alanine at the residue number 1010 of SEQ ID NO: 7 (protein, listed as Homo sapiens)
chain: B2 chain with A805T, T1010A

— patent US9562084B2, “Peptides derived from NCAPG2 and their use” (NATIONAL CANCER CENTER, priority 2014, dated 2017)
